According to patent US20230174608A1 (published 2023):

Experiments:
[1] = molecular target: GLP-1 receptor (GLP-1R), stably expressed on HEK293 cells; assay: cell-based or functional assay
[2] = molecular target: Glucagon receptor (GCGR), stably expressed on HEK293 cells; assay: cell-based or functional assay

Binder	GLP-1R (nM EC50), receptor-mediated cAMP production in HEK293 cells [1]	GCGR (nM EC50), receptor-mediated cAMP production in HEK293 cells [2]
HXQGTFTSDYSKYLEERAAKEFIAWLEGG (HELM PEPTIDE1{H.[Aib].Q.G.T.F.T.S.D.Y.S.K.Y.L.E.E.R.A.A.K.E.F.I.A.W.L.E.G.G.[am]}|PEPTIDE2{[CCCCCCCCCCCCCCCC(=O)[*:2]].[gGlu]}$PEPTIDE1,PEPTIDE2,20:R3-2:R2$$$V2.0; N-terminus assumed; SMILES CCCCCCCCCCCCCCCC(=O)N[C@@H](CCC(=O)NCCCC[C@H](NC(=O)[C@H](C)NC(=O)[C@H](C)NC(=O)[C@H](CCCNC(=N)N)NC(=O)[C@H](CCC(=O)O)NC(=O)[C@H](CCC(=O)O)NC(=O)[C@H](CC(C)C)NC(=O)[C@H](Cc1ccc(O)cc1)NC(=O)[C@H](CCCCN)NC(=O)[C@H](CO)NC(=O)[C@H](Cc1ccc(O)cc1)NC(=O)[C@H](CC(=O)O)NC(=O)[C@H](CO)NC(=O)[C@@H](NC(=O)[C@H](Cc1ccccc1)NC(=O)[C@@H](NC(=O)CNC(=O)[C@H](CCC(N)=O)NC(=O)C(C)(C)NC(=O)[C@@H](N)Cc1c[nH]cn1)[C@@H](C)O)[C@@H](C)O)C(=O)N[C@@H](CCC(=O)O)C(=O)N[C@@H](Cc1ccccc1)C(=O)N[C@H](C(=O)N[C@@H](C)C(=O)N[C@@H](Cc1c[nH]c2ccccc12)C(=O)N[C@@H](CC(C)C)C(=O)N[C@@H](CCC(=O)O)C(=O)NCC(=O)NCC(N)=O)[C@@H](C)CC)C(=O)O) [dgc015]	0.899 nM	1.53 nM
HXQGTFTSDYSKYLDERAAKEFIAWLEGG (HELM PEPTIDE1{H.[Aib].Q.G.T.F.T.S.D.Y.S.K.Y.L.D.E.R.A.A.K.E.F.I.A.W.L.E.G.G.[am]}|PEPTIDE2{[CCCCCCCCCCCCCCCC(=O)[*:2]].[gGlu]}$PEPTIDE1,PEPTIDE2,20:R3-2:R2$$$V2.0; N-terminus assumed; SMILES CCCCCCCCCCCCCCCC(=O)N[C@@H](CCC(=O)NCCCC[C@H](NC(=O)[C@H](C)NC(=O)[C@H](C)NC(=O)[C@H](CCCNC(=N)N)NC(=O)[C@H](CCC(=O)O)NC(=O)[C@H](CC(=O)O)NC(=O)[C@H](CC(C)C)NC(=O)[C@H](Cc1ccc(O)cc1)NC(=O)[C@H](CCCCN)NC(=O)[C@H](CO)NC(=O)[C@H](Cc1ccc(O)cc1)NC(=O)[C@H](CC(=O)O)NC(=O)[C@H](CO)NC(=O)[C@@H](NC(=O)[C@H](Cc1ccccc1)NC(=O)[C@@H](NC(=O)CNC(=O)[C@H](CCC(N)=O)NC(=O)C(C)(C)NC(=O)[C@@H](N)Cc1c[nH]cn1)[C@@H](C)O)[C@@H](C)O)C(=O)N[C@@H](CCC(=O)O)C(=O)N[C@@H](Cc1ccccc1)C(=O)N[C@H](C(=O)N[C@@H](C)C(=O)N[C@@H](Cc1c[nH]c2ccccc12)C(=O)N[C@@H](CC(C)C)C(=O)N[C@@H](CCC(=O)O)C(=O)NCC(=O)NCC(N)=O)[C@@H](C)CC)C(=O)O) [dgc014]	0.516 nM	0.821 nM
HXQGTFTSDYSKYLEERAAKEFIAWLEGG (HELM PEPTIDE1{H.[Aib].Q.G.T.F.T.S.D.Y.S.K.Y.L.E.E.R.A.A.K.E.F.I.A.W.L.E.G.G.[am]}|PEPTIDE2{[CCCCCCCCCCCCCCCC(=O)[*:2]].[gGlu].[gGlu]}$PEPTIDE1,PEPTIDE2,20:R3-3:R2$$$V2.0; N-terminus assumed; SMILES CCCCCCCCCCCCCCCC(=O)N[C@@H](CCC(=O)N[C@@H](CCC(=O)NCCCC[C@H](NC(=O)[C@H](C)NC(=O)[C@H](C)NC(=O)[C@H](CCCNC(=N)N)NC(=O)[C@H](CCC(=O)O)NC(=O)[C@H](CCC(=O)O)NC(=O)[C@H](CC(C)C)NC(=O)[C@H](Cc1ccc(O)cc1)NC(=O)[C@H](CCCCN)NC(=O)[C@H](CO)NC(=O)[C@H](Cc1ccc(O)cc1)NC(=O)[C@H](CC(=O)O)NC(=O)[C@H](CO)NC(=O)[C@@H](NC(=O)[C@H](Cc1ccccc1)NC(=O)[C@@H](NC(=O)CNC(=O)[C@H](CCC(N)=O)NC(=O)C(C)(C)NC(=O)[C@@H](N)Cc1c[nH]cn1)[C@@H](C)O)[C@@H](C)O)C(=O)N[C@@H](CCC(=O)O)C(=O)N[C@@H](Cc1ccccc1)C(=O)N[C@H](C(=O)N[C@@H](C)C(=O)N[C@@H](Cc1c[nH]c2ccccc12)C(=O)N[C@@H](CC(C)C)C(=O)N[C@@H](CCC(=O)O)C(=O)NCC(=O)NCC(N)=O)[C@@H](C)CC)C(=O)O)C(=O)O) [dgc016]	1.23 nM	0.342 nM
HXQGTFTSDYSKYLDERAAKEFIAWLEGG (HELM PEPTIDE1{H.[Aib].Q.G.T.F.T.S.D.Y.S.K.Y.L.D.E.R.A.A.K.E.F.I.A.W.L.E.G.G.[am]}|PEPTIDE2{[CCCCCCCCCCCCCCCC(=O)[*:2]].[gGlu].[gGlu]}$PEPTIDE1,PEPTIDE2,20:R3-3:R2$$$V2.0; N-terminus assumed; SMILES CCCCCCCCCCCCCCCC(=O)N[C@@H](CCC(=O)N[C@@H](CCC(=O)NCCCC[C@H](NC(=O)[C@H](C)NC(=O)[C@H](C)NC(=O)[C@H](CCCNC(=N)N)NC(=O)[C@H](CCC(=O)O)NC(=O)[C@H](CC(=O)O)NC(=O)[C@H](CC(C)C)NC(=O)[C@H](Cc1ccc(O)cc1)NC(=O)[C@H](CCCCN)NC(=O)[C@H](CO)NC(=O)[C@H](Cc1ccc(O)cc1)NC(=O)[C@H](CC(=O)O)NC(=O)[C@H](CO)NC(=O)[C@@H](NC(=O)[C@H](Cc1ccccc1)NC(=O)[C@@H](NC(=O)CNC(=O)[C@H](CCC(N)=O)NC(=O)C(C)(C)NC(=O)[C@@H](N)Cc1c[nH]cn1)[C@@H](C)O)[C@@H](C)O)C(=O)N[C@@H](CCC(=O)O)C(=O)N[C@@H](Cc1ccccc1)C(=O)N[C@H](C(=O)N[C@@H](C)C(=O)N[C@@H](Cc1c[nH]c2ccccc12)C(=O)N[C@@H](CC(C)C)C(=O)N[C@@H](CCC(=O)O)C(=O)NCC(=O)NCC(N)=O)[C@@H](C)CC)C(=O)O)C(=O)O) [dgc013]	0.319 nM	1.99 nM

The remaining lines, values ahead:

GLP-1R (nM EC50), receptor-mediated cAMP production in HEK293 cells [1]	GCGR (nM EC50), receptor-mediated cAMP production in HEK293 cells [2]	Binder
0.401 nM	1.3 nM	HXQGTFTSDYSKYLDERAAKEFIAWLEGEG (HELM PEPTIDE1{H.[Aib].Q.G.T.F.T.S.D.Y.S.K.Y.L.D.E.R.A.A.K.E.F.I.A.W.L.E.G.E.G.[am]}|PEPTIDE2{[CCCCCCCCCCCCCCCC(=O)[*:2]].[gGlu]}$PEPTIDE1,PEPTIDE2,20:R3-2:R2$$$V2.0; N-terminus assumed; SMILES CCCCCCCCCCCCCCCC(=O)N[C@@H](CCC(=O)NCCCC[C@H](NC(=O)[C@H](C)NC(=O)[C@H](C)NC(=O)[C@H](CCCNC(=N)N)NC(=O)[C@H](CCC(=O)O)NC(=O)[C@H](CC(=O)O)NC(=O)[C@H](CC(C)C)NC(=O)[C@H](Cc1ccc(O)cc1)NC(=O)[C@H](CCCCN)NC(=O)[C@H](CO)NC(=O)[C@H](Cc1ccc(O)cc1)NC(=O)[C@H](CC(=O)O)NC(=O)[C@H](CO)NC(=O)[C@@H](NC(=O)[C@H](Cc1ccccc1)NC(=O)[C@@H](NC(=O)CNC(=O)[C@H](CCC(N)=O)NC(=O)C(C)(C)NC(=O)[C@@H](N)Cc1c[nH]cn1)[C@@H](C)O)[C@@H](C)O)C(=O)N[C@@H](CCC(=O)O)C(=O)N[C@@H](Cc1ccccc1)C(=O)N[C@H](C(=O)N[C@@H](C)C(=O)N[C@@H](Cc1c[nH]c2ccccc12)C(=O)N[C@@H](CC(C)C)C(=O)N[C@@H](CCC(=O)O)C(=O)NCC(=O)N[C@@H](CCC(=O)O)C(=O)NCC(N)=O)[C@@H](C)CC)C(=O)O) [dgc018]
0.627 nM	3.95 nM	HXQGTFTSDYSKYLDEKAAKEFIAWLEGG (HELM PEPTIDE1{H.[Aib].Q.G.T.F.T.S.D.Y.S.K.Y.L.D.E.K.A.A.K.E.F.I.A.W.L.E.G.G.[am]}|PEPTIDE2{[CCCCCCCCCCCCCCCC(=O)[*:2]].[gGlu]}$PEPTIDE1,PEPTIDE2,20:R3-2:R2$$$V2.0; N-terminus assumed; SMILES CCCCCCCCCCCCCCCC(=O)N[C@@H](CCC(=O)NCCCC[C@H](NC(=O)[C@H](C)NC(=O)[C@H](C)NC(=O)[C@H](CCCCN)NC(=O)[C@H](CCC(=O)O)NC(=O)[C@H](CC(=O)O)NC(=O)[C@H](CC(C)C)NC(=O)[C@H](Cc1ccc(O)cc1)NC(=O)[C@H](CCCCN)NC(=O)[C@H](CO)NC(=O)[C@H](Cc1ccc(O)cc1)NC(=O)[C@H](CC(=O)O)NC(=O)[C@H](CO)NC(=O)[C@@H](NC(=O)[C@H](Cc1ccccc1)NC(=O)[C@@H](NC(=O)CNC(=O)[C@H](CCC(N)=O)NC(=O)C(C)(C)NC(=O)[C@@H](N)Cc1c[nH]cn1)[C@@H](C)O)[C@@H](C)O)C(=O)N[C@@H](CCC(=O)O)C(=O)N[C@@H](Cc1ccccc1)C(=O)N[C@H](C(=O)N[C@@H](C)C(=O)N[C@@H](Cc1c[nH]c2ccccc12)C(=O)N[C@@H](CC(C)C)C(=O)N[C@@H](CCC(=O)O)C(=O)NCC(=O)NCC(N)=O)[C@@H](C)CC)C(=O)O) [dgc017]
